Patent US20180155413A1 (AstraZeneca / MedImmune, published 2018)
Like-named read-outs stand apart in the source and are kept apart here.

Legend:
Assay in all cases: cell-based or functional assay
[1] = biological target: HA of A/Shan dong/9/93 (H3N2) (influenza A virus)
[2] = biological target: HA of A/California/07/2009 (H1N1) (influenza A virus)
[3] = biological target: HA of ca B/Beijing/243/97 (victoria) (influenza B virus)
[4] = biological target: HA of A/Victoria/3/75 (H3N2) (influenza A virus)
[5] = biological target: HA of B/Florida/4/2006 (yamagata) (influenza B virus)
[6] = biological target: HA of B/Hong Kong/330/2001 (victoria) (influenza B virus)
[7] = biological target: HA of B/Ohio/1/2005 (victoria) (influenza B virus)
[8] = biological target: HA of A/Wilson Smith N/33 (H1N1) (influenza A virus, UniProt P03454 18-565)
HA of A/Wilson Smith N/33 (H1N1), sequence (P03454 18-565 limits assumed): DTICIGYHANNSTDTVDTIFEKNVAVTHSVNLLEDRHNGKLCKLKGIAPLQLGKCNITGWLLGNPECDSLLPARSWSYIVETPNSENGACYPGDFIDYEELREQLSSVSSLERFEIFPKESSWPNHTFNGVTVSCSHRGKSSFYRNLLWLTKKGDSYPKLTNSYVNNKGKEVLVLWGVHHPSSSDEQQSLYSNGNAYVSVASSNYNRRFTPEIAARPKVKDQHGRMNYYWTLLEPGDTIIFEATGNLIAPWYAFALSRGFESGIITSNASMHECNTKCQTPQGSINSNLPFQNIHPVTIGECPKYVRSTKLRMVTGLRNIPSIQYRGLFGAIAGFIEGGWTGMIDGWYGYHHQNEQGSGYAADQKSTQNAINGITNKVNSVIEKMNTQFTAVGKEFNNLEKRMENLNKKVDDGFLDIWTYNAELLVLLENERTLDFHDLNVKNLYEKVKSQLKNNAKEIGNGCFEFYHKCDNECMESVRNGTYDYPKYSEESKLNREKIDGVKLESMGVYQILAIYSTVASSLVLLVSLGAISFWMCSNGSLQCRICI

[9] = biological target: HA of B/Malaysia/2506/2004 (victoria) (influenza B virus)
[10] = biological target: HA of A/Beijing/262/95 (H1N1) (influenza A virus)
[11] = biological target: HA of ca A/Panama/2007/99 (H3N2) (influenza A virus)
[12] = biological target: HA of A/Hong Kong/8/68 (H3N2) (influenza A virus)
[13] = biological target: HA of B/Sichuan/379/99 (yamagata) (influenza B virus)
[14] = biological target: HA of B/Malaysia/2506/2004 (victoria) (influenza B virus); remark: listed apart in the source
[15] = biological target: HA of B/Sichuan/379/99 (yamagata) (influenza B virus); remark: listed apart in the source
[16] = biological target: HA of B/Arizona/8/2013 (yamagata) (influenza B virus)
[17] = biological target: HA of ca B/Beijing/243/97 (victoria) (influenza B virus); remark: listed apart in the source
[18] = biological target: HA of ca B/Victoria/504/2000 (yamagata) (influenza B virus)
[19] = biological target: HA of B/Florida/4/2006 (yamagata) (influenza B virus); remark: listed apart in the source
[20] = biological target: HA of B/Hong Kong/330/2001 (victoria) (influenza B virus); remark: listed apart in the source
[21] = biological target: HA of B/Yamagata/16/88 (yamagata) (influenza B virus)
[22] = biological target: HA of B/Ohio/1/2005 (victoria) (influenza B virus); remark: listed apart in the source
[23] = biological target: HA of B/Nevada/3/2011 (victoria) (influenza B virus)
[24] = biological target: HA of B/Wisconsin/5/2013 (victoria) (influenza B virus)
[25] = biological target: HA of ca B/Ann Arbor/1/66 (influenza B virus)
[26] = biological target: HA of ca B/Brisbane/60/2008 (victoria) (influenza B virus)
[27] = biological target: HA of B/Phuket/3073/2013 (yamagata) (influenza B virus)
[28] = biological target: HA of B/Wisconsin/1/2010 (yamagata) (influenza B virus)
[29] = biological target: HA of B/Malaysia/2506/2004 (victoria) (influenza B virus); remark: listed apart in the source
HA of B/Lee/40 [30] = biological target: T1, HA of B/Lee/40 (influenza B virus, UniProt P03460 16-584)
T1 sequence (P03460 16-584 limits assumed): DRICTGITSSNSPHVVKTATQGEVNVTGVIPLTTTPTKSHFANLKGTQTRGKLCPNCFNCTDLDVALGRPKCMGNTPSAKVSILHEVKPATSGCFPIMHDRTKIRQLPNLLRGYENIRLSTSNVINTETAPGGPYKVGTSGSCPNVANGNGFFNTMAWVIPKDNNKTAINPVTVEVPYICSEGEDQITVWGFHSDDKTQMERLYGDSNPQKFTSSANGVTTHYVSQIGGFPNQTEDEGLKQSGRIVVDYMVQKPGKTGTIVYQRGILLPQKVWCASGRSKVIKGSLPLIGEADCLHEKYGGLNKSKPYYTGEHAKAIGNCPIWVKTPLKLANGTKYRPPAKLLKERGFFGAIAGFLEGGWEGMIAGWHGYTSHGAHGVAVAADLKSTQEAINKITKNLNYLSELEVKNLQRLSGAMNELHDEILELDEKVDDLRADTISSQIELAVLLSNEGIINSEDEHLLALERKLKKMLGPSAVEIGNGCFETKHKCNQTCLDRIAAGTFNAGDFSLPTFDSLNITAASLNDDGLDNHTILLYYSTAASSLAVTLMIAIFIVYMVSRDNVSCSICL

[31] = biological target: HA of ca B/Georgia/02/98 (yamagata) (influenza B virus)
[32] = biological target: HA of B/New Jersey/01/2012 (victoria) (influenza B virus)
[33] = biological target: HA of B/Sichuan/379/99 (yamagata) (influenza B virus); remark: listed apart in the source
[34] = biological target: HA of B/Texas/2/2013 (victoria) (influenza B virus)
HA of B/Hong Kong/5/72 [35] = biological target: HA of B/Hong Kong/5/72 (influenza B virus)
[36] = biological target: HA of B/Yamanashi/166/98 (yamagata) (influenza B virus)
[37] = biological target: HA of ca B/Beijing/243/97 (victoria) (influenza B virus); remark: listed apart in the source
[38] = biological target: HA of ca B/Victoria/504/2000 (yamagata) (influenza B virus); remark: listed apart in the source
[39] = biological target: HA of B/Florida/4/2006 (yamagata) (influenza B virus); remark: listed apart in the source
[40] = biological target: HA of B/Hong Kong/330/2001 (victoria) (influenza B virus); remark: listed apart in the source
[41] = biological target: HA of ca B/Ann Arbor/2/94 (yamagata) (influenza B virus)
[42] = biological target: HA of B/Yamagata/16/88 (yamagata) (influenza B virus); remark: listed apart in the source
[43] = biological target: HA of B/Ohio/1/2005 (victoria) (influenza B virus); remark: listed apart in the source
[44] = biological target: HA of ca B/Johannesburg/5/99 (yamagata) (influenza B virus)
[45] = biological target: HA of ca B/Ann Arbor/1/66 (influenza B virus); remark: listed apart in the source
[46] = biological target: HA of ca B/Brisbane/60/2008 (victoria) (influenza B virus); remark: listed apart in the source
[47] = biological target: HA of B/Malaysia/2506/2004 (victoria) (influenza B virus); remark: listed apart in the source
HA of B/Lee/40 [48] = biological target: T1, HA of B/Lee/40; remark: listed apart in the source
[49] = biological target: HA of B/Shanghai/361/02 (yamagata) (influenza B virus)
[50] = biological target: HA of ca B/Georgia/02/98 (yamagata) (influenza B virus); remark: listed apart in the source
[51] = biological target: HA of B/Sichuan/379/99 (yamagata) (influenza B virus); remark: listed apart in the source
HA of B/Hong Kong/5/72 [52] = biological target: HA of B/Hong Kong/5/72 (influenza B virus); remark: listed apart in the source

B1: FBC39 IgG (antibody, V domains shown)
VH: EVQLVVSGGGLVKPGGSLRLSCAASGLSFLNAWMSWVRQAPGKGLEWVGRIKSNTDGGTTDYAAPVKGRFSISRDDSKNMLFLHMSSLRTEDTAVYYCATDGPYSDDFRSGYAARYRYFGMDVWGQGTTVTVSS
VL: DIQMTQSPSSVSASVGDRVTITCRASQDISTWLAWYQQKPGKAPKLLIYAASSLQSGVPSRFSGSGSGTDFTLTISSLQPEDFATYFCQQANSFPPTFGQGTKLEIK
Question: B1 was tested. Which “Neutralization (IC50)” value [1] did it give?
Answer: > 1000 nM

Question: And the “Neutralization (IC50)” value [2]?
Answer: > 1000 nM

Question: What about the “Neutralization (IC50)” value [3] of the same binder?
Answer: 0.4 nM

Question: And the “Neutralization (IC50)” value [4]?
Answer: > 1000 nM

Question: What about the “Neutralization (IC50)” value [5] of the same binder?
Answer: 0.4 nM

Question: And the “Neutralization (IC50)” value [6]?
Answer: 1 nM

Question: What about the “Neutralization (IC50)” value [7] of the same binder?
Answer: 0.6 nM

Question: And the “Neutralization (IC50)” value [8]?
Answer: > 1000 nM

Question: And the “Neutralization (IC50)” value [9]?
Answer: 1 nM

Question: And the “Neutralization (IC50)” value [10]?
Answer: > 1000 nM

Question: What about the “Neutralization (IC50)” value [11] of the same binder?
Answer: > 1000 nM

Question: And the “Neutralization (IC50)” value [12]?
Answer: > 1000 nM

Question: What about the “Neutralization (IC50)” value [13] of the same binder?
Answer: 0.2 nM

Question: What about the “ADCC: NK cell killing of infected A549 cells (LDH release), IC50” value [14] of the same binder?
Answer: 1.45 nM

Question: And the “ADCC: NK cell killing of infected A549 cells (LDH release), IC50” value [15]?
Answer: 0.85 nM

Question: What about the “Neutralization (IC50)” value [16] of the same binder?
Answer: 0.1 nM

Question: What about the “Neutralization (IC50)” value [17] of the same binder?
Answer: 0.9 nM

Question: And the “Neutralization (IC50)” value [18]?
Answer: 0.2 nM

Question: And the “Neutralization (IC50)” value [19]?
Answer: 0.2 nM

Question: And the “Neutralization (IC50)” value [20]?
Answer: 1.8 nM

Question: What about the “Neutralization (IC50)” value [21] of the same binder?
Answer: 0.1 nM

Question: What about the “Neutralization (IC50)” value [22] of the same binder?
Answer: 0.5 nM

Question: What about the “Neutralization (IC50)” value [23] of the same binder?
Answer: 1.2 nM

Question: And the “Neutralization (IC50)” value [24]?
Answer: 0.5 nM

Question: What about the “Neutralization (IC50)” value [25] of the same binder?
Answer: 0.6 nM

Question: And the “Neutralization (IC50)” value [26]?
Answer: 1.5 nM

Question: What about the “Neutralization (IC50)” value [27] of the same binder?
Answer: 0.2 nM

Question: What about the “Neutralization (IC50)” value [28] of the same binder?
Answer: 0.1 nM

Question: What about the “Neutralization (IC50)” value [29] of the same binder?
Answer: 1.2 nM

Question: What about the “Neutralization (IC50)” value (HA of B/Lee/40 [30]) of the same binder?
Answer: 0.1 nM

Question: What about the “Neutralization (IC50)” value [31] of the same binder?
Answer: 0.1 nM

Question: What about the “Neutralization (IC50)” value [32] of the same binder?
Answer: 0.7 nM

Question: And the “Neutralization (IC50)” value [33]?
Answer: 0.3 nM

Question: And the “Neutralization (IC50)” value [34]?
Answer: 0.4 nM

Question: And the “Neutralization (IC50)” value (HA of B/Hong Kong/5/72 [35])?
Answer: 0.4 nM

Question: What about the “Hemagglutination Inhibition Titer” value [36] of the same binder?
Answer: 13 nM

Question: What about the “Hemagglutination Inhibition Titer” value [37] of the same binder?
Answer: 14 nM

Question: What about the “Hemagglutination Inhibition Titer” value [38] of the same binder?
Answer: 16 nM

Question: What about the “Hemagglutination Inhibition Titer” value [39] of the same binder?
Answer: 7 nM

Question: And the “Hemagglutination Inhibition Titer” value [40]?
Answer: 16 nM

Question: And the “Hemagglutination Inhibition Titer” value [41]?
Answer: 6 nM

Question: And the “Hemagglutination Inhibition Titer” value [42]?
Answer: 11 nM

Question: And the “Hemagglutination Inhibition Titer” value [43]?
Answer: 24 nM

Question: What about the “Hemagglutination Inhibition Titer” value [44] of the same binder?
Answer: 18 nM

Question: What about the “Hemagglutination Inhibition Titer” value [45] of the same binder?
Answer: 6 nM

Question: And the “Hemagglutination Inhibition Titer” value [46]?
Answer: 20 nM

Question: And the “Hemagglutination Inhibition Titer” value [47]?
Answer: 20 nM

Question: What about the “Hemagglutination Inhibition Titer” value (HA of B/Lee/40 [48]) of the same binder?
Answer: 5 nM

Question: What about the “Hemagglutination Inhibition Titer” value [49] of the same binder?
Answer: 16 nM

Question: And the “Hemagglutination Inhibition Titer” value [50]?
Answer: 16 nM

Question: And the “Hemagglutination Inhibition Titer” value [51]?
Answer: 10 nM

Question: And the “Hemagglutination Inhibition Titer” value (HA of B/Hong Kong/5/72 [52])?
Answer: 8 nM
